The values below come from article PMC9328677 (2021).

Common to all, as to experiment: ITC
Assay [1] addresses T1, Drosophila melanogaster histone H3-H4 complex, full-length (Drosophila melanogaster, UniProt P02299 1-136; P84040 1-103).
The target of assay [2] is stoichiometric mixture of full-length Drosophila melanogaster H2A-H2B and H3-H4 (octamer-mix) (Drosophila melanogaster, UniProt P84051 1-124; P02283 1-123; P02299 1-136; P84040 1-103).
Assay [3] concerns the target T1, Drosophila melanogaster histone H3-H4 …. This is another data set of the same source.

Where two headings read alike, the source gives them in different places.

B1: APLF^AD double anchor mutant Y462A/F468A (DA-34) (domain or fragment)
chain: DEDNDNVGQPNEADLNDSALDDEEEDYEPTDEDSDWEPGKEDEEKEDVEELLKEAKRFMKRK
With B1, the equilibrium dissociation constant (Kd) – broadly, a measure of binding affinity in units of concentration – worked out at 7630 nM in assay [1] and 671 nM in assay [2].

B2: SUMO-APLF^AD quadruple anchor mutant Y462A/F468A/Y476A/W485A (QA) (domain or fragment)
chain: DEDNDNVGQPNEADLNDSALDDEEEDAEPTDEDSDAEPGKEDEEKEDVEELLKEAKRFMKRK
On to B2, for which, in assay [2], the Kd stood at 794 nM.

B3: acidic domain of Homo sapiens APLF (APLF^AD, residues 450 to 511), wild type (domain or fragment)
chain: DEDNDNVGQPNEYDLNDSFLDDEEEDYEPTDEDSDWEPGKEDEEKEDVEELLKEAKRFMKRK
Turning to B3, the Kd in assay [3] was determined as 552 nM; in assay [1], 790 nM.

B4: APLF^AD mutant of Y462 tested by ITC on H3-H4 (domain or fragment)
chain: DEDNDNVGQPNEADLNDSFLDDEEEDYEPTDEDSDWEPGKEDEEKEDVEELLKEAKRFMKRK
As for B4, the Kd in assay [1] amounted to 3090 nM.

B5: APLF^AD double anchor mutant Y476A/W485A (DA-AB) (domain or fragment)
chain: DEDNDNVGQPNEYDLNDSFLDDEEEDAEPTDEDSDAEPGKEDEEKEDVEELLKEAKRFMKRK
Take B5: the Kd in assay [1] was determined as 2050 nM; in assay [2], 317 nM.

B6: APLF^AD F468A (protein)
chain: DEDNDNVGQPNEYDLNDSALDDEEEDYEPTDEDSDWEPGKEDEEKEDVEELLKEAKRFMKRK
In assay [1], B6 gave a Kd of 980 nM.

For the molecule GLDEDNDNVGQPNEYDLNDSFLDDEEEDYEPTDEDSDWEPGKE (domain or fragment) [truncated APLF^AD construct corresponding to residues 449 to 490 (APLF^AD-Δ)], in assay [2], the Kd is 90 nM.

Consider LDEDNDNVGQPNEADLNDSALDDEEEDAEPTDEDSDAEPGKE (domain or fragment) [SUMO-APLF^AD truncated QA mutant (QA-Δ, residues 449 to 490)], for which the Kd in assay [2] amounted to 1220 nM.
